Our source for the TNF-α secretion from THP-1 cells on coated wells (10 µg/well, heat aggregated) values is US20080075733A1.

This experiment concerns the target Fc receptor on THP-1 cells. In words: cell-based or functional assay.

“human IgG1 (heat aggregated, coated on wells) (antibody)” yielded a TNF-α secretion from THP-1 cells on coated wells (10 µg/well, heat aggregated) of more than 40 ng/well.
